Assay results from article PMC5718245.

How the values were obtained:
[1] = target: PSD95 PDZ3 (Rattus norvegicus) (UniProt P31016); settings: cited from earlier work
[2] = target: GST-PDZ3 fusion protein (PDZ3 domain of SAP97); assay: SPR; Biacore3000; anti-GST antibody immobilised, GST-PDZ3 captured (1200-1700 RU), GST on the reference cell subtracted; peptides as analytes at 62.5 nM to 12.8 µM, 30 µl/min; HBS (0.01 M HEPES, 0.15 M NaCl, 3 mM EDTA, 0.005% Surfactant P20); steady-state affinity fit, 1:1 model

Sequence of UniProt P31016 (P31016 310-396): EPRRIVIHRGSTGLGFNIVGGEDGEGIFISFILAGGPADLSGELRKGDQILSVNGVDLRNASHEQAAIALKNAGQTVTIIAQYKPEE

Molecule	Kd [1] [nM]	Kd [2] [µM]
CRIPT C-terminal 9 amino acids (from UniProt Q792Q4)	1000	–
AMCGKKVLDTKNYKQTSV [peptide CHRK1 (C-terminal 18 amino acids of CRIPT)]	–	6.57
